The source of these data is paper PMC2566858 (Nucleic Acids Research, 2008).

Assay in all cases: fluorescence anisotropy
On the technique in general: In fluorescence polarisation assays a small probe gives low polarisation when free and higher when bound to something large.

Data set [1] deals with T1, rGyr_hel K106Q (Thermotoga maritima, UniProt O51934 59-541, K106Q).
T1 sequence: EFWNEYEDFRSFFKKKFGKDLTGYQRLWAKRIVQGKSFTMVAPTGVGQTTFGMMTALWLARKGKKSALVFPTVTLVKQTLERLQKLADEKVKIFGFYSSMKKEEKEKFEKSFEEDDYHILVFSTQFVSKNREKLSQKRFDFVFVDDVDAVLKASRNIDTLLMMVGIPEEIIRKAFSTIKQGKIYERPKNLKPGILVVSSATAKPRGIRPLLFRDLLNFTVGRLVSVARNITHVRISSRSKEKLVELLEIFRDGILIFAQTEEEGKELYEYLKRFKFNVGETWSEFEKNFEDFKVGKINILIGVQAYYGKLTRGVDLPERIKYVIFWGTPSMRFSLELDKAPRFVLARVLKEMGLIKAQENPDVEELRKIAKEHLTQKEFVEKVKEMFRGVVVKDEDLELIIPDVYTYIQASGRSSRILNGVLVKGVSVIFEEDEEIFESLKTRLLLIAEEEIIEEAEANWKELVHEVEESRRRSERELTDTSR

The target of data set [2] is T2, rGyr_fl Y851F (full-length reverse gyrase) (Thermotoga maritima, UniProt O51934 1-1104, Y851F).
T2 sequence: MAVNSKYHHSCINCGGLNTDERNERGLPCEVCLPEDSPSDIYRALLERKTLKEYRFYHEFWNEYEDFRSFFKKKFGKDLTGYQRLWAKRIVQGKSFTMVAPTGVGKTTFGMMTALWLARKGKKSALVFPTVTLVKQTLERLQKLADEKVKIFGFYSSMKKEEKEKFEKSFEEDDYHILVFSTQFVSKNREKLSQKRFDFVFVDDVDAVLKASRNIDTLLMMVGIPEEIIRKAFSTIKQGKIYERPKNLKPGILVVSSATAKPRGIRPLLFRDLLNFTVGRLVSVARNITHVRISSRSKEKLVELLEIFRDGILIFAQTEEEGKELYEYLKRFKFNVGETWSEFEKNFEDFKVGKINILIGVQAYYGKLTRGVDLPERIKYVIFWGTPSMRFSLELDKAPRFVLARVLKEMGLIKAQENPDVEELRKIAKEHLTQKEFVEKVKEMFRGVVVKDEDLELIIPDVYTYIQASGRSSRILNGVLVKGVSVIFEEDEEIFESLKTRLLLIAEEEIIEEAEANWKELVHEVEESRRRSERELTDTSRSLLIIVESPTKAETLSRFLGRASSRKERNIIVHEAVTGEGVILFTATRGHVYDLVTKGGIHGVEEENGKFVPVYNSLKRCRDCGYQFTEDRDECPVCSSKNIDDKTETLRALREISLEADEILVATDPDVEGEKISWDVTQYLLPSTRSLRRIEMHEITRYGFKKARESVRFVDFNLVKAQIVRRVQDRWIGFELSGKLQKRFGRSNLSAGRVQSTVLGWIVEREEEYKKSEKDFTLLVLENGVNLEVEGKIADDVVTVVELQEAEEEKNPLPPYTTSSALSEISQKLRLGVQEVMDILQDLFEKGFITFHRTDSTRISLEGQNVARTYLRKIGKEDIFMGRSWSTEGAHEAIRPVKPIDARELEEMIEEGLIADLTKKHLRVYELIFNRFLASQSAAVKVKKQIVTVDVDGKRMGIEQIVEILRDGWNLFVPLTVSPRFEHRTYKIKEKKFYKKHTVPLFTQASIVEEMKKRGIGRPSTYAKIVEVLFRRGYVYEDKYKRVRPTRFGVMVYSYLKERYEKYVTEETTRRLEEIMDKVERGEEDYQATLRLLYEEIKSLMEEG

In data set [3] the target is T2, rGyr_fl Y851F (full-length reverse …). This is another data set of the same source.
Data set [4] has as its target T1, rGyr_hel K106Q. The source holds these as a separate data set.
In data set [5] the target is T2, rGyr_fl Y851F (full-length reverse …). The source holds these as a separate data set.
Data set [6] addresses T3, rGyr_hel (reverse gyrase helicase-like domain) (Thermotoga maritima, UniProt O51934 59-541).
T3 sequence: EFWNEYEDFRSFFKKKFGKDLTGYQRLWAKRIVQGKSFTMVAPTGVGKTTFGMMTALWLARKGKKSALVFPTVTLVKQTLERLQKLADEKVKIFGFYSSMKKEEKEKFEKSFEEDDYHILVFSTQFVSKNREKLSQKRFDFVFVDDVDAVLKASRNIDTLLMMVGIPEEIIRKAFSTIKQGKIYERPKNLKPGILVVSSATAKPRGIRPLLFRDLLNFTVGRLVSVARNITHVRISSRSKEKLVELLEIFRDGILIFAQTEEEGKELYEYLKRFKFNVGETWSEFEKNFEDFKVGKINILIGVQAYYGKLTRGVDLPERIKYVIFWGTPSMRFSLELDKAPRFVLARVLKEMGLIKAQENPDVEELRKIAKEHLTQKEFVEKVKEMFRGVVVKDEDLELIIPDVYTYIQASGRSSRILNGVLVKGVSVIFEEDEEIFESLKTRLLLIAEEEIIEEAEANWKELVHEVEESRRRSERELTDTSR

Where two headings read alike, the source gives them in different places.

B1: 60-base ssDNA (ssDNA)
DNA: AAGCCAAGCTTCTAGAGTCAGCCCGTGATATTCATTACTTCTTATCCTAGGATCCCCGTT
What is called Kd is the concentration at which binding is half-saturated. On to B1, for which the Kd stood at 250 ± 30 nM with rGyr_hel K106Q [1]; 60 ± 15 nM in data set [2]; 41 ± 9 nM in data set [3]; 180 ± 30 nM in the data set with rGyr_hel K106Q [4]; 35 ± 5 nM in data set [5]; 200 ± 30 nM in data set [6].

B2: 60 bp dsDNA (dsDNA)
DNA 1: AAGCCAAGCTTCTAGAGTCAGCCCGTGATATTCATTACTTCTTATCCTAGGATCCCCGTT
DNA 2: AACGGGGATCCTAGGATAAGAAGTAATGAATATCACGGGCTGACTCTAGAAGCTTGGCTT
In the case of B2, the Kd in the data set with rGyr_hel K106Q [1] was determined as 2900 ± 600 nM; in data set [2], 250 ± 40 nM; in data set [3] it was 330 ± 70 nM; with rGyr_hel K106Q [4], 3800 ± 600 nM; in data set [5] it was 490 ± 60 nM; in data set [6], 3900 ± 600 nM.
